Test: soluble on expression in E. coli; label from the status in PepcDB or PDB records

Sequence	soluble on expression in E. coli
MGSDKIHHHHHHMTRTSPTHAKLAQPIVHAPGLFHSLAPGERKRDKLDVTHVAGDTTVRFVGFEPLDSTDLRVLQGLIALATAGLRNIRRLLRDGQSLRTSLDLKGDAQDERTVAARFTLASLADMAGFDRGGFGCRQMRASLQRLSNVTVLVDRPEFEGAFRLVSGYRLDKHTGELVVSISPLGTTAILGRQGYLRLNMDEVRRIHGEVAHLIHSRLHWVNQGDRRPVNMDTLCSYAYVGVRTGSALRKRRMAVRQALKELMDVGWTVTEKYPGTYLIGRPRRASDQGELVTRAGVNW	not soluble
SSLIQAGQQTRFTTDASAAVEPADSARETWSRGVLVAWDMTLGDVVKELRRYRSGYLGIAPEVAGLRVFGSFPLRDTDDTLTMLASALPIRIQRTLPWWVSIEARTDADPHR	not soluble
MSENHVPAWKRIALKRQTISSGDESKEKGQSNLIDDDPLNITTHLSTGNLTKKEKKRIINGESKSSTKKGKRVSKPGTKKKEKLSKDEKNSKKNKILKDQLRYLIEFFRTKSESKFPTGILELESVKENYGDSLIKDEPSESGVVEVWKFSKQKQNWLIKHFFNLDEIPSVYNDLLLLYFRDLQGKSKEELISKCKGKLKQWNDYVEDQETKIKALIAEDKASEPINGEEKEEGEKDGNAEQGKQKEVQDEQEEVQMPNKELVQRSLKLLEIWKNDDSEQIELKNFFVDV	soluble
MGSDKIHHHHHHMTMKTRDKILLSSLELFNDKGERNITTNHIAAHLAISPGNLYYHFRNKSDIIYEIFQEYEKLVDYYLDIPEDRPITLEDMTFYLESVFDGLWSYRFFHRDLEYLLDSDPRLRQDYREFTNRCLAAINRIFAKLADAGIIQPQPEDLRSAMSLNVWLVITNWMAFLKTAHAAEEPASLSLTELKQGIYQVLTLEVPYLTPEYRERVLALREKYRPTLPEAQGISGVEA	not soluble
MSLRPNHAAQSLRSRTSKTIGCMFSDVANPLYARAFRALEEHFRREGYMLLLANGLNDAEREIDIIQTFQLRGMDGVILAPGNERHPGVLDAVRRLSMPAVIYDRDLAVDADAVLFDHVAGVKAAIHHLVELGHTRIALALWQVKSRPVRRRIEGYKAAFKAAGLPVPDLILQEPTPTSSAFDDVTRLLQLPDPPTAFLAQGTHTLTSTLRAIAKQGLRVPEDVSVIGIGDTDFAQTYDPPLTVLRTPTDEVAAHAVEMLLSRLAAKGDASLSPRKALIQFDLILRESCAPVAREGHHHHHH	soluble
MGHHHHHHSHMATLIYVDKEIGEPGTRVAAKDVLKLESRPSIKALDGISQVLTPRFGKTYDAPSALPKATRKALGTVNRATEKSVKTNGPRKQKQPSFSAKKMTEKTVKTKSSVPASDDAYPEIEKFFPFNLLDFESFDLPEERQIAHLPLSGVPLMILDEEGELEKLFQLGPPSPVKMPSPPWECNLFAVSFKHSVDPGC	not soluble
MAFFRNCDPDDPLCIDECRLQKFEYLRWVRLLPSGDEDVLSYCASIGARLGKSEGYVSRRIDAFSMLLELSKVHELQLKMWHLDITRLMVIAQALSGVEKEVIEEIDAPLARFLTPKRDNQKMPGPKVIKKFIVDLLVRVEDAVEEVDSPQELAIDFYDAGNGKTGINAVVDNATASIFRDQLMRLAKAYECDDSSALLLMATQEGKSLTINLYKGDNFGELMTADGYRLSRKSVDLVFPNASRRSLEGVENVETRGYSFTPSMRAYIQARDGVCRFPGCSIRAVNCDIDHVEEYGLGGKTTARNAQCLCRRHHNLKTSKAVDCEISGDASVSWILEDGTKVVTLPEGIFSADRLFGQTFAQRVVDRIRRRKLRMRKNSCDDVPF	not soluble
SNAMKAPELQIQQWFNSATDLTLADLRGKVIVIEAFQMLCPGCVMHGIPLAQKVRAAFPEDKVAVLGLHTVFEHHEAMTPISLKAFLHEYRIKFPVGVDQPGDGAMPRTMAAYQMRGTPSLLLIDKAGDLRAHHFGDVSELLLGAEIATLLGEAAPSV	soluble
MNKTNQIVDLLTNKQNNSIQRRDNLVFVKNEQEFKDILDSTISLSNVYDPLLGNGCEQEKIKELTILNNSVDISKIEEYTKTLESKVDDLYNNVSNQLIQDYQKNENTSANNIIMKNEELLNSHLKEVEKICEQLIDEWKIEILGEVNFKFQQQLIEIDQKQEHKLKVKSLINEDSFLTKRQVKNKNKILTEFEKHRSQITQNYLNKRSDILKKEYDELLKDDKLFELSSGDNWNNFKKITLFISNEIGIINDLEDLLNHQELIRTRNYTKRAILNQHHINGHFKDEKKYLKSLYDLRVKFMYGLGSEIVILKFLIEHYKKLNSLRLRLETLNHPLSNYAVYFDILNRIEKQTQLLAKIETLKYDNYDFNADVILDDLESNITKINEIKHNSNVLNKTKVIKTIIEPKYELELISKDDKVDGVKVYVNDQEILSKLEHHHHHH	not soluble
MDFDRIAMRTTDPAWQKGSAPATPSPVEADAKVTMRLRYTKTGAMRYLSHLEMIGLFTRAVGRARLPIRFSQGFHPHPKFSFATALSVGVESWAEYLDMELIPSLTPGEVRDRLNAALPEGMRIVEAVVIPPGTPSLSVLMDKVRYRIILLEEAARDLAARAEAFLARDSFPLRRAKKGRIQEYDLEHHHHHH	not soluble
MWRRSLTESHSNELRLELTSRIVSAYLSRNVIAPSELPHLIQQTYGSLGKTSEPTKTPATVEEQRPAVPIKKSVTDDFIVCLEDGKSFKSLKRHLMAKYALTPEQYREKWKLPADYPMVAPNYARKRSELARATGLGKKSAANLSPSLQAVRSA	not soluble
MAAASVKGFFQRTGISIKEYFKRMGNDYATVARETVQGCKDRPVKAGVVFSGLGFLTYAYQTNPTELEMYDYLCERRQKLVLVPNSEHNPATTKELTARDFLISQNRLHYYNLWFFSLLVASDYNDKLRIYSSQDSNLKDWPWTELWRNIVDIGALGRWHRMETAFVDYDVNTDEIDLLPDGDKN	not soluble
MQELKDKIKKLGYEEIKDIDDATFIASHKNVYVYVKKVDEEQLKPELVTAITYEAMATDPISTYAWITNGTSNAYVLVEEEKAVSEIPSVFEDENKLYSGKRQLTDRDKWSIRKYQELQEKFDGLHEMIYGMKDHVNNSNDVIDEFSKLIFLETFRLYHPEYRLTKGNVTGKLFNEIYRYEYVEKHKDKAVQEIREAFKEIKDHADYVAILDNGEKANIFSADEYIKLENPNIYIAVLKALQDLGTIIIDGVERPATLRDLTGDVLGRVFDVLLRGKFENKGGMGIYLTPRQVTEAAAEMVLHDLTKDGAAKLIAKDPKTGIPTLRIGDLCCGSGGFLIKMLQKIEHYLLNKLTGDKKQYEELFEQMKEHCFIGADNAPGMVLKARINMALHGAPKCPIFQTRNSLMNTRLKPGTFDAILTNPPFSKTGISKTIKKGKTTVENPEGAEIIKYYSSDIDEDGQNRMSPYGLSLGSKPDSRGKWKEVNSVDPAVLFIDRNLQLLKPGGLLMIVVPDGILSNSGDKYVREYIMGKKNPVTGEFEGGKAILKAVISLPQVTFALSGAGAKTSLLYLKKKEHPGEKQGPVFMAVADEVGFTVKQNVEVQLGDDHNDLLKIVEAYKKGMPEDVE	not soluble
MSLHYQPKQDLLQNRIILVTGASDGIGREAALTYARYGATVILLGRNEEKLRRVAQHIADEQHVQPQWFTLDLLTCTAEECRQVADRIAAHYPRLDGVLHNAGLLGEIGPMSEQDPQIWQDVMQVNVNATFMLTQALLPLLLKSDAGSLVFTSSSVGRQGRANWGAYATSKFATEGMMQVLADEYQNRSLRVNCINPGGTRTSMRASAFPTEDPQKLKTPADIMPLYLWLMGDDSRRKTGMTFDAQPGRKEGHHHHHH	soluble
MGSDKIHHHHHHMALWQAKQVCPEIIFVPPRMDLYLRFSQMAREIYSEYTDKIEPYGIDEAWLDVSDSGNLKGSGMTIAREISHRIKYELGVTVSIGISWNKIYAKLGSDYKKPDAITEFNRENYKDRIWQLPASDLLYVGRQTNKKLQKLGIRTIGQLAESDEKLLESHFGKIGNVLWAFANGWDEDPVCKEGYEAPVKSIGNSTTTPRDLENDLDVWIIQIALAESVAARLRKHGFKCKTVEITVRDNGLYSFSRQIHLRQPTNITNEIVTAAFQLFKDNYKWEHPIRSLGIRAADLVLDDIPVQLDLFGNQEKKEKLEKLDRTVDEIRRRFGYFSIQRAAMYQDKVLSHLDAGTHTVHPHSYFHG	not soluble

Source: the DeepSol protein solubility set
